This is an account of results in patent US20210079040.

B1: ADAMTS 4 (enzyme, UniProt O75173 213-837, looked up, species assumed)
A disintegrin and metalloproteinase with thrombospondin motifs 4: FASLSRFVETLVVADDKMAAFHGAGLKRYLLTVMAAAAKAFKHPSIRNPVSLVVTRLVILGSGEEGPQVGPSAAQTLRSFCAWQRGLNTPEDSDPDHFDTAILFTRQDLCGVSTCDTLGMADVGTVCDPARSCAIVEDDGLQSAFTAAHELGHVFNMLHDNSKPCISLNGPLSTSRHVMAPVMAHVDPEEPWSPCSARFITDFLDNGYGHCLLDKPEAPLHLPVTFPGKDYDADRQCQLTFGPDSRHCPQLPPPCAALWCSGHLNGHAMCQTKHSPWADGTPCGPAQACMGGRCLHMDQLQDFNIPQAGGWGPWGPWGDCSRTCGGGVQFSSRDCTRPVPRNGGKYCEGRRTRFRSCNTEDCPTGSALTFREEQCAAYNHRTDLFKSFPGPMDWVPRYTGVAPQDQCKLTCQAQALGYYYVLEPRVVDGTPCSPDSSSVCVQGRCIHAGCDRIIGSKKKFDKCMVCGGDGSGCSKQSGSFRKFRYGYNNVVTIPAGATHILVRQQGNPGHRSIYLALKLPDGSYALNGEYTLMPSPTDVVLPGAVSLRYSGATAASETLSGHGPLAQPLTLQVLVAGNPQDTRLRYSFFVPRPTPSTPRPTPQDWLHRRAQILEILRRRPWAGRK
B2: cathepsin K (enzyme, UniProt P43235 115-329, looked up, species assumed)
Cathepsin K: APDSVDYRKKGYVTPVKNQGQCGSCWAFSSVGALEGQLKKKTGKLLNLSPQNLVDCVSENDGCGGGYMTNAFQYVQKNRGIDSEDAYPYVGQEESCMYNPTGKAAKCRGYREIPEGNEKALKRAVARVGPVSVAIDASLTSFQFYSKGVYYDESCNSDNLNHAVLAVGYGIQKGNKHWIIKNSWGENWGNKGYILMARNKNNACGIANLASFPKM
B3: MMP 7 (enzyme, UniProt P09237 95-267, looked up, species assumed)
Matrilysin: YSLFPNSPKWTSKVVTYRIVSYTRDLPHITVDRLVSKALNMWGKEIPLHFRKVVWGTADIMIGFARGAHGDSYPFDGPGNTLAHAFAPGTGLGGDAHFDEDERWTDGSSLGINFLYAATHELGHSLGMGHSSDPNAVMYPTYGNGDPQNFKLSQDDIKGIQKLYGKRSNSRKK

This series has as its system T1, Link N (human Link N, DHLSDNYTLDHDRAIH).
T1 sequence: DHLSDNYTLDHDRAIH
Consider ADAMTS 5, for which the “peak area intensity of the 1922 Da Link 1-16 peptide (mass spectrometry) after proteinase digest” value (from here on “peak area intensity”) is “un-affected by MMPs 3, 7, 12, 13, ADAMTS 4,5, HTRA1, and cathepsins B, and L”. The same measure for HTRA1: “un-affected by MMPs 3, 7, 12, 13, ADAMTS 4,5, HTRA1, and cathepsins B, and L”; for MMP 3: “un-affected by MMPs 3, 7, 12, 13, ADAMTS 4,5, HTRA1, and cathepsins B, and L”. The same measure for MMP 12: “un-affected by MMPs 3, 7, 12, 13, ADAMTS 4,5, HTRA1, and cathepsins B, and L”; for MMP 13: “un-affected by MMPs 3, 7, 12, 13, ADAMTS 4,5, HTRA1, and cathepsins B, and L”. In the case of cathepsin B, the “peak area intensity” value was “un-affected by MMPs 3, 7, 12, 13, ADAMTS 4,5, HTRA1, and cathepsins B, and L”. Regarding cathepsin L, the “peak area intensity” value was “un-affected by MMPs 3, 7, 12, 13, ADAMTS 4,5, HTRA1, and cathepsins B, and L”. The same measure for B1: “un-affected by MMPs 3, 7, 12, 13, ADAMTS 4,5, HTRA1, and cathepsins B, and L”; for B2: “significantly diminished already after 30 minutes and was hardly detectable at 2 and 24 hours incubation with cathepsin K”. The value for B3 was “un-affected by MMPs 3, 7, 12, 13, ADAMTS 4,5, HTRA1, and cathepsins B, and L”.
